Assay: yeast display, Sf9 membrane polyspecificity reagent, FACS + sequencing; frameworks hold sequencing errors
In short: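 Using colony PCR, genes from sorted yeast display clones were amplified, then sequenced on MiSeq at 2 × 250 and filtered by CDR length. The clones had been stained with 10% biotinylated, detergent-solubilized Sf9 membrane reagent for 1 hour at 4 °C and sorted by FACS into low and high (top ~1%) gates on anti-HA and streptavidin fluorescence. Polyreactivity labels come from the gate of origin.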
In the case of “QVQLVESGGGLVQAGGSLRLSCAASGIIFSQYAMGWYRQAPGKERELVAGITRSGGSTYYADSVKGRFSISRDNAKNTVYLQMNSLKPDDTAVYYCAAVQRYEYGYWGQGTQVTVSS”, the “polyreactivity (PSR sort gate)” value is reported as “high polyreactivity”.
For “QVQLVESGGGLVQAGGSLRLSCAASGFTFGYYAMGWYRQAPGKERELVATIDRGGGTSYADSVKGRFTISRDNAKNTVYLQMNSLKPEDTAVYYCNRACYGAKARRYRSYWGQGTQVTVSS”, the “polyreactivity (PSR sort gate)” value was “high polyreactivity”.
In the case of “QVQLVESGGGLVQAGGSLRLSCAASGFIFPPYTMGWYRQAPGKERELVAAINSGGSTYYADSVKGRFTISRDNAKNTVYLPMNSLKPEDTAVYYCAADTDRALAHFDYWGQGTQVTVSS”, the “polyreactivity (PSR sort gate)” value is reported as “low polyreactivity”.
For “QVQLVESGGGLVQAGGILRLSCAASGSNFWTNAMGWYRQAPGKERELVARISPGGSTNYADSVKGRFTISRDNAKNTVYLQMNSLKPEDTAVYYCAAQRGYVYGYDYWGQGTQVTVSS”, the “polyreactivity (PSR sort gate)” value was “low polyreactivity”.
With “QVQLVESGGGIVQAGGSLRLSCAASGRIFVGYAMGWYRQAPGKEREFVAAITFRGGTTYYADSVKGSFTISRDNAKNTVYLQMNSLKPEDTAVYYCAVPHYLYSVEYGYWGQGTQVTVSS” the “polyreactivity (PSR sort gate)” value was “low polyreactivity”.
In the case of “QGQLEESGGGLVQAGGSLRLSCAASGFIIYDYDMGRYRQAPGKERELVAAITYSGGSTYYADSVKGRFTISRDNAKNTVYLQMNSLKPEDTAVYHCAAVKSRYAVAVDYYYWGQGTQVTVSS”, the “polyreactivity (PSR sort gate)” value is reported as “low polyreactivity”.
For “QLQLVESGGGLVQAGGRLRLSCAASGFIFHINARGWYRQAPGKEREFVAAISRSVGSTSYADTVKGRFTNSRDNAKNTVYLLMNSLKPEDTAVYYCNAALRKRKGPYDYWGQGTQVTVSS”, the “polyreactivity (PSR sort gate)” value was “high polyreactivity”.
In the case of “QVQLQESGAGLVQAGVSLRLSCAASGYISTFSSEMGWYRQAPGKDRELVASIAPGCTTSYADSVKGRFTISRDKAKNTVFLQMNSLKPEDTAVYYCAVDYTVPASFGYWGQGTQVTVSS”, the “polyreactivity (PSR sort gate)” value is reported as “high polyreactivity”.
With “QVQLVESGGGLVQAGGSLRLSCAASGSTFLYYAMGWYRQAPGKERELVARITTRVGRTYYADSVKGRFTISRDNAKNTVYLQMNSLNPEDTAVYYCAAYPDYSYYYWGQGTQVTVSS” the “polyreactivity (PSR sort gate)” value was “high polyreactivity”.
With “QVQLVESGGGLVQAGGSLRLSCDASGSIFPYNAMGWFRQAPGKEWELVAAISKRGGSTYYADSVKGRFTISRDNAKNTVYLQMNSLKPEDSAVYYCAARYPPYRSWYSYDSWGQGTQVTVSS” the “polyreactivity (PSR sort gate)” value was “low polyreactivity”.
In the case of “QVQLVESGGGLVQAGGSLRLSCAASGSTFQYNAMGWYRQAPGKERELVAAISTGTSTYYADSVKGRFTISRDNAKNTVYLQMNSLKPEDTAVYYCAAEYWGDYTEYNYWGQGTQVTVSS”, the “polyreactivity (PSR sort gate)” value is reported as “high polyreactivity”.
For “QVQLVESGGGLVQAGGSLSLSCADSGLTFRKYAMGWYRQAPGKERELVAAISWSGGSTYYANSVKGRFTISRDNAKNTVYLQMNSLKPEETAVYYCAAVPVHTGSMYWGFTNGYDYWGQGTQVTLSS”, the “polyreactivity (PSR sort gate)” value was “low polyreactivity”.
In the case of “QVQLVESGGGLVQAGGSLRLSCAASGFTFYPYAMGWYRQAPGKERELVAAISNGDSTHYADSVKGRFTISRDNAKNTVYLQMNSLKPEDTAVYYCAAVRGYPSRITSYVYTYGYWGQGTQVTVSS”, the “polyreactivity (PSR sort gate)” value is reported as “low polyreactivity”.
With “QVQLVESGGGLVQAGGSLRLSCAPSGFTFRIYAMGWYRQAPGKERELVAAISWAGGSTFYADSVKGRFTISRDNAKNTVYLQLNSLKPEDTAVYYCAADTAFNYDYWGQGTQVTVSS” the “polyreactivity (PSR sort gate)” value was “low polyreactivity”.
In the case of “QFQLVESGGGLVQAGGSLRLSCAASGIIFGNNAMGWYRQAPGKERELVAAIRWSTGTTYYADSVKGRFTISRDNAKNTVYLQMNSLKPEDTAVYYCAARLRREYGYWGQGTQVTVSS”, the “polyreactivity (PSR sort gate)” value is reported as “high polyreactivity”.
For “QVQLVESGGGLVQAGGSLRLSCAAYGRTFARYAMGWYRQAPGKERELVAAISKSGVSTYYADSVKGRFTISRDHAKNTLYLQMNSLKPEDTAVYYCAAYVRQLQVVRGVSNYDSWGQGTQVTVSS”, the “polyreactivity (PSR sort gate)” value was “high polyreactivity”.
For “QVQLVESGGGLVQAGGSLRLSCAASGRTFGYYAMGWYRPAPGKEREFVAAISFRTTSTYYADSVKGRFTISRDNAKNTVYLQLNSLKPEDTAVYYCNVVVKGAWDYYPYDYWGQGPQVTVSS”, the “polyreactivity (PSR sort gate)” value was “high polyreactivity”.
With “QVQLVESGGGLVQAGGSLRLSCAASGLIFRYYAMGWYRQAPGKERELVATIRGGGSTYYADSVKGRFTISRDNAKNTVYLQMNSLKPEDTAVYYCAADPYSYGARGSRGDYWGQGTQVTVSS” the “polyreactivity (PSR sort gate)” value was “low polyreactivity”.
In the case of “QVQLGESGGGLVQAGGSLRLSCAASGNIFYANAMGWSRQAPGTERELLAAISGSGGSTYADSVKGRFTISRDNAKNTVYLQMNSLKPVDTAVYYCNASVLDAIFYKSVGYDYWGQGTQVTVSS”, the “polyreactivity (PSR sort gate)” value is reported as “low polyreactivity”.
In the case of “QVQLVESGGGLVQAGGSLRLSCAASGRTFGWNVMGWYRQAPGKERELVAAISGGGTSTYYADSVKGRFTISRDNAKNTVYLQMNSLKPEDTGVYYCNAYYPGSYYPRSGRYDYWGQGTQVTVSS”, the “polyreactivity (PSR sort gate)” value is reported as “high polyreactivity”.
In the case of “QVQLVESGGGLVQAGGSLRLSCAASGSTFDKNDMGWYRQAPGRERELVAAITSSGSSTYYADSVKGRFTISRDNAKNTVYLQMNSLKPADTAVYYCAADKYYYDRLSPSGDYWGQGTQVTVSS”, the “polyreactivity (PSR sort gate)” value is reported as “low polyreactivity”.
In the case of “QVQLVESGGGLVQAGGSLRLSCAASGNMFGYYAMGWYRQAPGKERELVARITSGGTTNYADSVKGRFTISRDNAKNTVYLQMNRLKPEDTAVYYCNKDWRRYWLRGDYWGQGTQVTVSS”, the “polyreactivity (PSR sort gate)” value is reported as “low polyreactivity”.
For “QVQLVESGGALVQAGGSLRLSCAASAGNFTGYAMGWSRQAPGKERELVATITSGGSTNYADSVKGRFTISRDNAKNSFYFQLNSLKPEDTAVYYCALDYIGDTPIWQYDYWGQGTQVTVSS”, the “polyreactivity (PSR sort gate)” value was “low polyreactivity”.
In the case of “QVQLVESGGGLVQAGGSLRLSCAASGSTFLAYTMGWYRQAPEKERELVADNTSNGGSTYYADSVKGRFTISRDNAKNTVYLQMNSLKPEDTAVYYCNTGSGAGITRPDDDFNYWGQGTQVTVSS”, the “polyreactivity (PSR sort gate)” value is reported as “low polyreactivity”.
For “QVHLVESGGGLVQAGGTLRLSCAATGRTIYDNAMGWYRQAPGKESELVAVISRSGSTYYADSVKGRFTISRDNAKNSVYLQMNSLKPEDNAVYYCARRGVWGVTYSRLYHWGQGTQVTVSS”, the “polyreactivity (PSR sort gate)” value was “high polyreactivity”.
In the case of “QVQLVESGGGLVQAGGSLRLSCAASGFTLGFNARGWYRQAPGKERELVAAITIGGTTYYADSVKGRFTISRDNAKNTVYLQMNSLKPEDTAVYYCAAARFLWFYVYTTRVQRYGYWGQGTQVTVSS”, the “polyreactivity (PSR sort gate)” value is reported as “low polyreactivity”.
For “QVQLVESGGGLVQAGGSLRLSSAASGRTFAVYAMGWYRQAPGKERELVAAISSGGSTYYADSVKGRFTISRDNAKNTVYLPMNSLKPEDTAVYYCTARWGYRRGDWGQGTQVTVSS”, the “polyreactivity (PSR sort gate)” value was “high polyreactivity”.
With “QVQLVESGGGLVQAGGSLRLSCAASGRIFYVYTMGWYRQAPGKERELVAAISWSGGSTHYADSVKGRFTIARDNAKNTVYLQMNSLKPEDTAVYYCNKGVVSRVAFEYWGQGTQVTVSS” the “polyreactivity (PSR sort gate)” value was “low polyreactivity”.
With “QVQIVESGGGLVQAGGSLRLSCAASGRIFDYYTMGWYRQAPGKERELVASISDGGRTNYADSVKGRFTISRDNAKNTVYLQMNSLKPEDTAVYYCAADFAPVAFDYWGQGTQVTVSS” the “polyreactivity (PSR sort gate)” value was “low polyreactivity”.
With “QVQLVESGGGLVQAGGSLRLSCAASGRTFKHYVMGWYRQAPGKERELVATISGGGGTYFADSVKGRFTISRYNAKYTVYLQMNSLKPEVTAVYYCAARYPRGSRTWSFDSNKQRDYWGQGTQVTVSS” the “polyreactivity (PSR sort gate)” value was “low polyreactivity”.
In the case of “QVQLVESGGGLVQAGGSLRLICAASGFIFTPYAMGWYRQAPGKERELVAAITWRGARTYYADSVKGRFTISRDNAKNTVYLQMNSLKPEDTAVYYCAVAYWNRQSLFRMYYWGQGTQVTVSS”, the “polyreactivity (PSR sort gate)” value is reported as “high polyreactivity”.
In the case of “QVQLVESGGRLDQARGSLRLSCAASGYNFQPYAMGWYRLAPGKERDLVAAISWRGGSTYYADSVKGRFTISRDNAKNTVYLQMTSLKPEDTAVYYCAKDYYYGLEHYGYWGQGTQVTVSS”, the “polyreactivity (PSR sort gate)” value is reported as “low polyreactivity”.
In the case of “QVQLEESGGGLVQAGGSLRLSCAASGRIFSNNVMGWYRQAPGKERELVATISTDGRTNYADSVKGRFTISRDNAKNTVYLQMNSLKPEDTAVYYCAATGVTILLSSKSDYWGQGTQVTVSS”, the “polyreactivity (PSR sort gate)” value is reported as “low polyreactivity”.
In the case of “QVQLVESGGGLVQAGGSLRISCAASGFTFSYNAMGWYRQAPGKERELVAGINVSSGGDTYADSVKGRFTISRDNAKNTVYLQMNSLKPEDTAVYYCAKDHYGDDTYGTPYDYDYWGQGTQVTVSS”, the “polyreactivity (PSR sort gate)” value is reported as “low polyreactivity”.
For “QVQLVESGGGLVQAGGSLRLSCAASGFIFTTYAMGWYRQAPGKERELVAAISSSGTTYYADSVKGRFTISRDNAKNTVYLQMNSLKPEDTAVYYCAARRQFRSYQQRLYYWGQGTQVTVSS”, the “polyreactivity (PSR sort gate)” value was “low polyreactivity”.
With “QVQLVESGGGLVQAGGSLRLSCAASGRTFKYYAMGWYRQAPGKERELVAAITTGGSTHYADSVKGRFTISRDNAKNTVYLQMNSLKPEDTAVYYCAAGPFARYDYWGQGTEVTVSS” the “polyreactivity (PSR sort gate)” value was “low polyreactivity”.
In the case of “QVQLVESGGGLVQAGGSLRLSCAPSGSIVNRYALGWYRQAPGKEREFVAAITRRGGYTYYADSVKGRFTISRDNAKNSVYLPLNSLKPEDTAVYYCAAPFYYPAGLLYYENNYWRQGTQVTVSS”, the “polyreactivity (PSR sort gate)” value is reported as “high polyreactivity”.
With “QVQLVESGGGLVQAGGSLRLSCAASGRTFGYYAMGWYRQAPGKERELVAAISYSSTITYYAGSVKGRFTISRDNAKNTVYLQMNSLKPEDTAVYYCAAYSTRGVEYDYWGQGTQVTVSS” the “polyreactivity (PSR sort gate)” value was “high polyreactivity”.
With “QVQLVESGGGLVQAGGSLRLSCAASGFIFKTYAMGWYRQAPGKERELVATITRRGGRTYYADSVKGRFTISRDNAKNTVYLQMNSLKPEDTAVYDCAADYALSSLPFDYWGQGTQVTVSS” the “polyreactivity (PSR sort gate)” value was “high polyreactivity”.
For “QVQLVESGGGLVQAGGSLRLSCAASGSTFVINAMGWYRQAPGKERELVARISSSGGRTYYADSVKGRFTISRDNAKNTVYLQMNSLKPEDTAVYYCAKRGYLFLRGSVRVGYNYWGHGTQVTVSS”, the “polyreactivity (PSR sort gate)” value was “low polyreactivity”.
For “QVQLVESGGGLVQAGGSLRLSCAASGSTFTGYAMGWYRQAPGKERELVAAISRSGGSTYYADSVKGRFTISRDNAKNTVYLQMNSLKPEDTAVYYCYVDPSARRYVYWGQGTQVTVSS”, the “polyreactivity (PSR sort gate)” value was “high polyreactivity”.
For “QVQLVESGGGLVQAGGRLRLSCAASGLIFGANTMGWYSQAPGKERELVAAITSSGGSTYYADSVKGRFTISRDNAKNTVYLQMNSLKPEDTAVYFCNDRSWYPYDYWGQGTQVTVSS”, the “polyreactivity (PSR sort gate)” value was “low polyreactivity”.
In the case of “QVQLVESGGGLVQAGGSLRLSCAASGGIFYRYAMGWYRQAPGKEREFVASIDVSGGSTHYADSVKGRFTISRDNAKNTVDLQMNSLKPEDTAVHYCAARVYWRSSRYYYWGHGTQVTVSS”, the “polyreactivity (PSR sort gate)” value is reported as “high polyreactivity”.
